Reference: publication PMC2816707

Molecular target: humanized EBV321
Experiment: ELISA
Details: chain shown with the change; point at the highest antibody concentration, about 13.3 nM (read from x axis); VEGF captured on ELISA plate; parent: est. 0.66; read off a plot

Row | Binder | response
1 | rabbit IgG Fc-hVEGF (human VEGF165) fusion protein, wild type, P15692-4 G88A (protein) APMAEGGGQNHHEVVKFMDVYQRSYCHPIETLVDIFQEYPDEIEYIFKPSCVPLMRCGGCCNDEGLECVPTEESNITMQIMRIKPHQAQHIGEMSFLQHNKCECRPKKDRARQENPCGPCSERRKHLFVQDPQTCKCSCKNTDSRCKARQLELNERTCRCDKPRR | 0.73 OD (405nm)
2 | rabbit IgG Fc-hVEGF (human VEGF165) fusion protein, wild type, P15692-4 I46A (protein) APMAEGGGQNHHEVVKFMDVYQRSYCHPIETLVDIFQEYPDEIEYAFKPSCVPLMRCGGCCNDEGLECVPTEESNITMQIMRIKPHQGQHIGEMSFLQHNKCECRPKKDRARQENPCGPCSERRKHLFVQDPQTCKCSCKNTDSRCKARQLELNERTCRCDKPRR | 0.7 OD (405nm)
